# Reference: article PMC12420816 (Nature Communications, 2025)
# Target: SARS-CoV-2 nsp16 with uncleaved His6-tag (SARS-CoV-2) (UniProt P0DTD1)
# Assay: native MS
substance,measurement,value
"MERS-CoV nsp7-11 polyprotein, tag-free with authentic termini (domain or fragment)",percent of signal as complex,< 5%
